Source: the DeepSol protein solubility set

Assay: soluble on expression in E. coli; label from the status in PepcDB or PDB records
In the case of “MGSDKIHHHHHHMNFEIPQSLIHPLLALIQAESPLARQLREHGVCHGNMVVSARLFDAQSLSSLYTLSKAQNERELLFQMLALDNIYNAPQARTIPGLEMLVAGLIAYLSRDAIDGWLYQRSRDGVLLPWLVQRIRHVEPEQGMPYVAIDMLANTMLSANSEQTDPTRRRSGMTTSIIVTRDEIVDRTIPELLAEFGFFKECAEFRREYEIHAQRFVRYQRSFGAQFIATRAGFTVEGKNTVALARIADGVTARCINDEERLERRFEMNCDAEFWRRAGVVSGFEKVPLHGYVHLFHLEWHQNIWVHVQHLSEYKYRPELRDKLVLPDHHRDLIDILTSHMDVLVQDFVPGKSGGTTILCQGAPGLGKTLTAEIYAEVVGKPLYRVHSGQLGTTAASVGATLMEILRRAMRWNAVLLLDEADVYIRRRDNDLEHNAIVAEFLRTLEYFSGLLFMTTNRTGDVDDAILSRCIATIQYETPCREDAARLWRLQADQCGVSLQDELVDALTAAYPKASGRDIKELMKLATRYSEAKQIALSEDVFRLCAQFRAIE”, the “soluble on expression in E. coli” value is reported as “not soluble”. In the case of “MGSDKIHHHHHHVKVLVTGAAGFIGYSLATRLLARGDEVIGVDIVNDYYDPRLKEARLARLAQQGGGRFTFLRTDFADYPALTAALEGAHFDRIVHLGAQAGVRYSIENPHAYVQSNLVGHVNLLEVARHRGVEHMVYASSSSVYGGNTKLPFSVDDRVDHPLSLYAATKKADELMSETYAHLYRLPLTGLRFFTVYGPWGRPDMMMWLFTRAILAGEPIQVFNHGDMYRDFTYVDDIVSGVVACLDNPPLDDGAPKAGGSLKPHRLYNIGNHKSEHLMKVIAILEAELGRKAEMRMLPMQPGDVRQSFADIDAISGDLGYRPTTGIETGVPNFVRWYKDYHGL”, the “soluble on expression in E. coli” value is reported as “not soluble”. In the case of “MGSDKIHHHHHHMSEEIELKFIVHPDSVESLLTQLAEWESDYSQYEHMRAQRLSNIYYETADNYLRRNGIGLRIRGENERYEMTAKTAGKVIGGLHQHPEYNVALETAELDLSLFPAEIWPEDCDVKTLQPSLNPLFSTDFTREKWVFTYYQSVIEVALDRGEIRAGDLSEPLCELEMELKVGQTTHLLALAKEIAEFGGMRQGSLSKAARGYHLAKGNPVRECLPLNRLVVDSKTNIDQAIRAALELALSHWQYHEELWVRGDSSAREALPQASALMREMLVLVGGVVLRRVTTLFRSALSTLENRLQGSGGSEICYSTDYLQSKLVLTSWLVESGWRDYMDNKDRIKLQGSFKRFADIMLSRSTAELKSAFSSKLTAEQYEQQIPRLQRNLYAFLLLSGAYPADQVEAYVEHWQTLLQEIEHLAVDQAPSVYLEAYRKEVLTLPPFWLHSGGPSQ”, the “soluble on expression in E. coli” value is reported as “not soluble”. For “MSLAEPRYKADIGGGSLKLPESRIIAGLLLEGVTEDQWRHAIEVENVLQRRSPGTAKRQSSLMRNRLETMGPELWQMVRDGSTQVAIQAVFAAAIKHSTLLGDFLDLVVRDQFRMFRPDLPRKMWDQYLEQCRNRDPLMPVWQDSTANKLADCVYRILVEVGYITDSKTYRLKSVRISGEVMSYLRENNEQYVIRCIQVSIEGHHHHHH”, the “soluble on expression in E. coli” value was “soluble”. With “AEIDTSSIVEMVQGAEDAPVEVIEYASYTCPHCAAFHEGPYKKLKADFIDTGKVRFIYREVYFDRYGLWASMVARCAGPEKFFGISDLIYKGQAEWSRAGGPAEIAEELRKIGRLAGIENDKLEACLGDATKAQTLVAWYQEHATRDDINSTPSFMINGKKVENQAYDGFKALIEAELGN” the “soluble on expression in E. coli” value was “not soluble”. With “MSNDHLETTGSSDPNTNLLKYLPIVLNPDRTITRPIQIPSTAASPDPTSSSPVLTKDLALNPLHNTFVRLFLPRHALYNSAKLPLVVYFHGGGFILFSAASTIFHDFCCEMAVHAGVVIASVDYRLAPEHRLPAAYDDAMEALQWIKDSRDEWLTNFADFSNCFIMGESAGGNIAYHAGLRAAAVADELLPLKIKGLVLDEPGFGGSKRTGSELRLANDSRLPTFVLDLIWELSLPMGADRDHEYCNPTAESEPLYSFDKIRSLGWRVMVVGCHGDPMIDRQMELAERLEKKGVDVVAQFDVGGYHAVKLEDPEKAKQFFVILKKFVVDSCTTKLKLN” the “soluble on expression in E. coli” value was “soluble”. With “MDDELRGLLARYARGELSADDARRAILRYPKWRVAEIDGELETVALDDGTPMLIAESSASDGREYSGLELVRDIAPLVGGLSFDPDEPWGSAFRPGALPELQNWARTVELEDAVAKPGPGQRDLLYEGPWWVAVSPGTGRPAVHRADGLDVITIMTAPDAAATFRRTERHRGLDVVRLGPALWGDLAKRSDFDGVRLNPLRPLAQLWPPHVPAMLVAGCDPRPNAEPLPARTVAEIHLWLDQHGARQEKRELSNRATPVGEVTVARAWWNYDRREIAFTRVAPASDTEGLGSVPSRILCAGKLRQSIQSKLAGLPRLTWRADAWHRQRAALAVGWALELEKLVCGERVPFAALRTPEGAHLWHLEPQAFTARAIRKLRDRAASFR” the “soluble on expression in E. coli” value was “soluble”. With “MDLFDLIFPPPPQSPSKLHPTQNHILPPEPLNRDFGDTRKNHKKAQPRRTTKAPSTSSPTIHDRQTPPRPTTPKSPTEKLLPIYHKFADGTEVVNPAAYAQRGFGWVKQNNTARVSWAKWAQSTKKCDDDIYGLKWIEERYPNWRDSNFRIRERRRSRSRSPQLSDNGSEDISIYLGRANSSSPNPTATGSETSYGSPTDAIYIPRNY” the “soluble on expression in E. coli” value was “not soluble”. With “MGSDKIHHHHHHAQRVITASGKYITKNIKVTRFDQIYLKGSPTIEYTQSPGASKVQIAGSDNLVDLVECRVEGSTLIVNMKSRTNISYGKEGRLKILVSSPMLKSASLQGSGDIHLGSLKVEGLDVSLTGSGDIVAENITCNSDFSALLKGSGDIDVKGQLRAKSVNLNLQGSGDLKVAGVTGSEISAMLQGSGDLKVGSTNITSTVMAKLSGSGDMDVLDIRANSVSGQLDGSGDMTLSGSACNATLVLNRSGELSARKLDAENVTAHVNGSGEISCTATKTLETNIQGSGEISYKGNPSIRSTGKNHLNRL” the “soluble on expression in E. coli” value was “not soluble”. With “MRSLIGMTFLNSSVGQRRLRQNGIVLRLGPVVADRRRATLPHRQGHCLDRQDLETLLLWLQRHFLCVPLEHLLEGPAPACLRIALSVDGNPAELAEQVYPLLERYEMPASAFIGGDPRSWREAVAETLWQADATAAGPLLELLEGYSGAALMAVFERTGDDQRRSRNLDLLLRKLERLDPASQQALHAACPVPAPYSAGDWERVRRLENSGLLRFGLRGQEPHPSAGLCAEDCLGRAHRQLQQHCAAPLPVFCQARTTPAAQPGLRAALGRLGYRFAFGARNGLVDTRCDPLDLPRIEVDAAIAARPGRLAWHIYRGARP” the “soluble on expression in E. coli” value was “not soluble”. With “MGSDKIHHHHHHMTEKEIVDYIKNNDIQKIKFAFADIDGVLRGKLIHTDKFLDGLKEGLGFCDVVFGWDSADAGYDNVSATGWHTGYPDKLAQIDLSTFRLIPWENNTPFFLADYKNNDQTALPICPRTLLKRIAQECSAMGYHAAFAQEFEWFNFRETQQSLVEKNFHDLTPLTNGMFGYSILRPSLEDAYYNDLFDLLGAFDIPLEGLHTETGPGVYECAYFHDEVVRAADKATLLKTAVKEIANKHGIIATFMAKISDKLPGCSGHIHQSLWNTGKTENLFYDPNQEHNMSDLFKHYVAGQLYCLPHIVPMLAPTVNSYKRLVEGAWAPTTLTWGFDNRTTALRVLNHSKKTARLEQRVSGSDTNPYLAIAASLASGLYGIKHKLSLDVPPTTGNGYANKSNGSIASNLMDATQLMKNSSIAKELFGEAFVQHFTATREWEWRQFSKHVSDWEMKRYMEII” the “soluble on expression in E. coli” value was “not soluble”. With “MQFYRRLTAIKAISFDLDDTLYNNRPIMQSVEQQMAHYFTEKFAILLPELLVEPKQVFNRRFWAPYRQQAIKAHQDISHDVVRLRFESYRLGLLAHNLSAEAARKEAQAGLDYFINLRSDFTVPKESHELLASLSKAFPLVSISNGNVDTRALGIDHYFQHIYHAGFQTGNCHDESEHLLKQKPETDMFSLVCQQLDILPEQLLHVGDCGFADIHGALNAGCQTAWLPQYGVGKSLQQIPHIELSLVSDLSQLIRKA” the “soluble on expression in E. coli” value was “not soluble”. In the case of “MGLAASEALQGSEQEINSAFSNQITPVISGDYIVWQDERDGNWDIYMYDMSAGRTETSLFNGPKDEIEPAISGSRVVLADNRRGNYDIYMYDISTKKEVQVTSDKSEQKEPAISEDIIVWTDRRNQNTDIYMYDLTTKEETRITDDKADQSQPAVWGNIIVWKDTRNGNEDIYMYDISAGKESPVVMDSAAQTNPVIEGDYIVWEDRRAGNLDIYMYEISTGKEKPVCTDPSPQKTPAISDGRIVWADGRIKGTNIFIYDIATGQEKTVSTASEYESNPSIDGNRIVWQDKRKGAMDIFMFTEDASETESTAGEKTEAETGSKAPLGIYPVSAGVIAAYLMINSGKKGKRKTLEHHHHHH”, the “soluble on expression in E. coli” value is reported as “not soluble”.
